Assay results published in patent US7919262B2, “14-3-3 proteins for diagnosis of Parkinson's disease” (The UAB Research Foundation, priority 2007, dated 2011).

Test system: H4 cells
Test: α-syn aggregation assay (synT + synphilin co-transfection)
Format: cell-based
Settings: isoform co-transfected with synT and synphilin; 24 hours after transfection; vs empty vector
Description: H4 cells were cotransfected with either empty vector or a 14-3-3 isoform along with synT and synphilin. 24 hours after transfection, cells were fixed and stained with a monoclonal antibody against α-syn. Cells that stained for α-syn were scored as positive or negative for α-syn aggregates, with the rater blind to experimental condition. Results reflect three independent experiments with four replicates per experiment. ***p<0.001 (Bonferroni's multiple comparison test).
To evaluate this hypothesis the effect of increased 14-3-3 polypeptide expression on α-syn aggregation was evaluated. In this experiment, the model of McLean et al., in which α-syn/green fluorescent protein (GFP) fusion protein (synT) forms visible aggregates in cells when expressed with synphilin (McLean, P J et al., Neuroscience, 104:901-12, 2001) was used. This system has been used to evaluate the effect of different polypeptides on α-syn aggregation (Kiucken, J., et al, J Biol Chem, 279:4625-31, 2004). Briefly, H4 cells were co-transfected with either empty vector or a vector containing nucleic acid encoding a 14-3-3 isoform, along with synT and synphilin. Twenty-four hours after transfection, cells were fixed and stained with a monoclonal antibody against α-syn. Results are shown in FIG. 3 and reflect three independent experiments with 4 replicates per experiment. […] These are the same 14-3-3 isoforms that were decreased in α-syn transgenic mice (see FIG. 2).
Primers against each of the human 14-3-3 isoforms were designed using Primer3. […] All cells stained for α-syn were scored as positive or negative for α-syn aggregates, with the rater blind to experimental condition. • α-syn toxicity assay H4 cells were transfected with α-syn and either empty vector control or a 14-3-3 isoform using Superfect transfection reagent (Qiagen). 24 hours after transfection, toxicity was measured by the amount of adenylate kinase released into the media using the ToxiLight™ kit (Cambrex). • Creation of stable cell lines Each 14-3-3 isoform was subcloned into the mammalian expression vector mcDNA3.1/V5-His (Invitrogen). […]

Molecule | decrease in the number of H4 cells displaying α-syn aggregates [%]
14-3-3γ: 14-3-3 polypeptide γ isoform, overexpressed from expression vector | 40
14-3-3ε: 14-3-3 polypeptide ε isoform, overexpressed from expression vector (protein, UniProt P62258 1-255, looked up) 14-3-3 protein epsilon: MDDREDLVYQAKLAEQAERYDEMVESMKKVAGMDVELTVEERNLLSVAYKNVIGARRASWRIISSIEQKEENKGGEDKLKMIREYRQMVETELKLICCDILDVLDKHLIPAANTGESKVFYYKMKGDYHRYLAEFATGNDRKEAAENSLVAYKAASDIAMTELPPTHPIRLGLALNFSVFYYEILNSPDRACRLAKAAFDDAIAELDTLSEESYKDSTLIMQLLRDNLTLWTSDMQGDGEEQNKEALQDVEDENQ | 40
14-3-3θ: 14-3-3 polypeptide θ isoform, overexpressed from V5/His-tagged pcDNA3.1 vector (or as transgene in C. elegans) (protein, UniProt P27348 1-245, looked up, V5/His tag) 14-3-3 protein theta: MEKTELIQKAKLAEQAERYDDMATCMKAVTEQGAELSNEERNLLSVAYKNVVGGRRSAWRVISSIEQKTDTSDKKLQLIKDYREKVESELRSICTTVLELLDKYLIANATNPESKVFYLKMKGDYFRYLAEVACGDDRKQTIDNSQGAYQEAFDISKKEMQPTHPIRLGLALNFSVFYYEILNNPELACTLAKTAFDEAIAELDTLNEDSYKDSTLIMQLLRDNLTLWTSDSAGEECDAAEGAEN | 40
